Laboratory results reported in paper PMC8931436, “Glycosylphosphatidylinositol-anchored micronemal antigen (GAMA) interacts with the band 3 receptor to promote erythrocyte invasion by malaria parasites” (The Journal of Biological Chemistry, 2022).

T1: ANK1-F2 (ankyrin 1 membrane-binding domain fragment 2, aa 250–568) (human, UniProt P16157 250-568)
T1 construct: amplified from cDNA of human reticulocyte mRNA; also called HA-ANK1-F2; HA-tagged ANK1-F2; source: E. coli BL21 (DE3) pLysS, pET30a, purified; not shown: HA, C-terminal, kept
T1 sequence (looked up): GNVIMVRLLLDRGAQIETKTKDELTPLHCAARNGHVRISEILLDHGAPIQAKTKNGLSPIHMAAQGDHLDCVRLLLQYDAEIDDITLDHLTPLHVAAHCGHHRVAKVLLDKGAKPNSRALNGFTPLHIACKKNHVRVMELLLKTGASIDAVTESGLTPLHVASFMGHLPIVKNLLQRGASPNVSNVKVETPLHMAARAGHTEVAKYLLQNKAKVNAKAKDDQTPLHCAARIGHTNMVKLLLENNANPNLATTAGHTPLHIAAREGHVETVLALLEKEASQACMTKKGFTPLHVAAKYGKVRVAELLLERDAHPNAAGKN


Molecular target: T1, ANK1-F2 (ankyrin 1 membrane-binding …)
Experiment: SPR; BIAcore S200, 25 °C, HBS-EP pH 7.4; ANK1-F2 immobilised on a CM5 chip, PfGAMA-Tr3 or PvGAMA-F2 injected at varying concentrations; response at equilibrium against concentration, 1:1 Langmuir model
Conditions: both partners purified

Row | Binder | Kd [µM]
1 | recombinant PvGAMA-F2 (P. vivax glycosylphosphatidylinositol-anchored micronemal antigen, aa 345–589) (domain or fragment, PvGAMA, P. vivax, PVX_088910, 771-amino acid protein; Cloned into BamH1/Xho1 sites of pET30a; further vector-encoded residues may be present; also called His-PvGAMA-F2; source: E. coli BL21 (DE3) pLysS, pET30a, purified (Ni-NTA); not shown: Flag, C-terminal, kept) DVSVDEKGDRATTAGGNQSASVAAAAPKDAGPTVAAPNTAATLKTAASPNAAATNTAAPPNMGATSPLSNPLYGTSSLQPKDVAVLVRDLLKNTNIIKFENNEPTSQMDDEEIKKLIESSFFDLSDNTMLMRLLIKPQAAILLIIESFIMMTPSPTRDAKTYCKKALVNGQLIETSDLNAATEEDDLINEFSSRYNLFYERLKLEELREIEQNRKALKNSKGTLSVLEVANSQNAPDGKGVNGSG | 13.8
2 | recombinant PfGAMA-Tr3 (P. falciparum glycosylphosphatidylinositol-anchored micronemal antigen, aa 500–715) (domain or fragment, PfGAMA, P. falciparum, PF3D7_0828800, 738-amino acid protein; Cloned into BamH1/Xho1 sites of pET30a; further vector-encoded residues may be present; also called His-PfGAMA-Tr3; Flag-PfGAMA-Tr3; source: E. coli BL21 (DE3) pLysS, pET30a, purified (Ni-NTA); not shown: Flag, C-terminal, kept) KDIIKLLKDLIKYLHIVKFENNEPTTNIDEEGIRKLLENSFFDLNDDILIVRLLLKPQTVILTVIQSFMLMTPSPSRDAKAYCKKALINDQLVPTNDTNILSEENELVNNFSTKYVLIYEKMKLQELKEMEESKLKMKYSKTNLSALQVTNPQNNKDKNDASNKNNNPNNSSTPLIAVVTDLSGEKTEDIINNNVDIATLSVGVQNTFQGPNAKAG | 0.166
